Source: the supplement of paper PMC11780869

Tested on: Bacillus subtilis
Test: cleaved RNA product abundance (RNA/gDNA barcode ratio) relative to median wild-type variant (ratio to wild type); higher = more accumulation of the downstream cleavage product
Settings: experiment (reporter, strain, medium): exp 8a: truncated aprE reporter, strain BJT201 with 2% xylose (RNase J1 expressed); cleavage site: glnRA (positions -5 to +31 mutated)
Summary of the method: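 Reporter mRNAs based on truncated aprE or tetM carried barcoded, mutagenized RNase Y cleavage-site windows built from oligos with a 9% error rate and were integrated into the B. subtilis chromosome. Cultures grew in LB at 37°C from OD600 0.0003 to 0.3. Cleaved RNA was gel-selected, reverse transcribed and barcode-sequenced together with genomic DNA barcodes, and UMIs were collapsed. Cleaved product abundance is the per-construct ratio of RNA to gDNA barcodes, scaled to the median of constructs carrying the unmutated site.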

| Sequence | cleaved RNA product abundance |
| --- | --- |
| CGACATGTCCCGCTTCTTTCATTACTCCGTTAGCAACTGTTTTGCCATATACATTTACCTTTTAAGAGGAGGAAT | 0.246 |
| CGACATGTCCCGCTTCTTTCATTACTCCGTTAGCAACTGTTTTGCGATATACATTTACCTTTTAAGAGGAGGAAT | 0.388 |
| CGACATGTCCCGCTTCTTTCATTACTCCGTTAGCAACTGTTTTGCTAAATACATTTACCTTTTAAGAGGAGGAAT | 1.11 |
| CGACATGTCCCGCTTCTTTCATTACTCCGTTAGCAACTGTTTTGCTATAAACATTTACCTTTTAAGAGGAGGAAT | 0.608 |
| CGACATGTCCCGCTTCTTTCATTACTCCGTTAGCAACTGTTTTGCTATACACATTTACCTTTTAAGAGGAGGAAT | 0.423 |
| CGACATGTCCCGCTTCTTTCATTACTCCGTTAGCAACTGTTTTGCTATAGACATTTACCTTTTAAGAGGAGGAAT | 0.738 |
| CGACATGTCCCGCTTCTTTCATTACTCCGTTAGCAACTGTTTTGCTATATAAATTTACCTTTTAAGAGGAGGAAT | 0.276 |
| CGACATGTCCCGCTTCTTTCATTACTCCGTTAGCAACTGTTTTGCTATATACAATTACCTTTTAAGAGGAGGAAT | 1.14 |
| CGACATGTCCCGCTTCTTTCATTACTCCGTTAGCAACTGTTTTGCTATATACACTTACCTTTTAAGAGGAGGAAT | 0.587 |
| CGACATGTCCCGCTTCTTTCATTACTCCGTTAGCAACTGTTTTGCTATATACATATACCTTTTAAGAGGAGGAAT | 0.767 |
| CGACATGTCCCGCTTCTTTCATTACTCCGTTAGCAACTGTTTTGCTATATACATCTACCTTTTAAGAGGAGGAAT | 0.75 |
| CGACATGTCCCGCTTCTTTCATTACTCCGTTAGCAACTGTTTTGCTATATACATTAACCTTTTAAGAGGAGGAAT | 1.36 |
| CGACATGTCCCGCTTCTTTCATTACTCCGTTAGCAACTGTTTTGCTATATACATTCACCTTTTAAGAGGAGGAAT | 0.658 |
| CGACATGTCCCGCTTCTTTCATTACTCCGTTAGCAACTGTTTTGCTATATACATTGACCTTTTAAGAGGAGGAAT | 1.16 |
| CGACATGTCCCGCTTCTTTCATTACTCCGTTAGCAACTGTTTTGCTATATACATTTACATTTTAAGAGGAGGAAT | 1.39 |
| CGACATGTCCCGCTTCTTTCATTACTCCGTTAGCAACTGTTTTGCTATATACATTTACCATTTAAGAGGAGGAAT | 1.3 |
| CGACATGTCCCGCTTCTTTCATTACTCCGTTAGCAACTGTTTTGCTATATACATTTACCGTTTAAGAGGAGGAAT | 1.01 |
| CGACATGTCCCGCTTCTTTCATTACTCCGTTAGCAACTGTTTTGCTATATACATTTACCTTTTAAGAGGAGGAAT | 1.1 |
| CGACATGTCCCGCTTCTTTCATTACTCCGTTAGCAACTGTTTTGCTATATACATTTACGTTTTAAGAGGAGGAAT | 0.893 |
| CGACATGTCCCGCTTCTTTCATTACTCCGTTAGCAACTGTTTTGCTATATACATTTACTTTTTAAGAGGAGGAAT | 1.59 |
| CGACATGTCCCGCTTCTTTCATTACTCCGTTAGCAACTGTTTTGCTATATACATTTATCTTTTAAGAGGAGGAAT | 1.8 |
| CGACATGTCCCGCTTCTTTCATTACTCCGTTAGCAACTGTTTTGCTATATACATTTGCCTTTTAAGAGGAGGAAT | 0.366 |

| Sequence | cleaved RNA product abundance |
| --- | --- |
| CGACATGTCCCGCTTCTTTCATTACTCCGTTAGCAACTGTTTTGCTATATACATTTTCCTTTTAAGAGGAGGAAT | 0.403 |
| CGACATGTCCCGCTTCTTTCATTACTCCGTTAGCAACTGTTTTGCTATATACGTTTACCTTTTAAGAGGAGGAAT | 0.332 |
| CGACATGTCCCGCTTCTTTCATTACTCCGTTAGCAACTGTTTTGCTATATACTTTTACCTTTTAAGAGGAGGAAT | 0.592 |
| CGACATGTCCCGCTTCTTTCATTACTCCGTTAGCAACTGTTTTGCTATATATATTTACCTTTTAAGAGGAGGAAT | 1.44 |
| CGACATGTCCCGCTTCTTTCATTACTCCGTTAGCAACTGTTTTGCTATATCCATTTACCTTTTAAGAGGAGGAAT | 0.21 |
| CGACATGTCCCGCTTCTTTCATTACTCCGTTAGCAACTGTTTTGCTATATGCATTTACCTTTTAAGAGGAGGAAT | 0.234 |
| CGACATGTCCCGCTTCTTTCATTACTCCGTTAGCAACTGTTTTGCTATCTACATTTACCTTTTAAGAGGAGGAAT | 0.0823 |
| CGACATGTCCCGCTTCTTTCATTACTCCGTTAGCAACTGTTTTGCTATGTACATTTACCTTTTAAGAGGAGGAAT | 0.117 |
| CGACATGTCCCGCTTCTTTCATTACTCCGTTAGCAACTGTTTTGCTATTTACATTTACCTTTTAAGAGGAGGAAT | 0.151 |
| CGACATGTCCCGCTTCTTTCATTACTCCGTTAGCAACTGTTTTGCTCTATACATTTACCTTTTAAGAGGAGGAAT | 0.288 |
| CGACATGTCCCGCTTCTTTCATTACTCCGTTAGCAACTGTTTTGCTGTATACATTTACCTTTTAAGAGGAGGAAT | 0.372 |
| CGACATGTCCCGCTTCTTTCATTACTCCGTTAGCAACTGTTTTGCTTTATACATATACCTTTTAAGAGGAGGAAT | 0.58 |
| CGACATGTCCCGCTTCTTTCATTACTCCGTTAGCAACTGTTTTGGTATATACATTTACCTTTTAAGAGGAGGAAT | 0.278 |
| CGACATGTCCCGCTTCTTTCATTACTCCGTTAGCAACTGTTTTGTTATATACATTTACCTTTTAAGAGGAGGAAT | 0.573 |
| CGACATGTCCCGCTTCTTTCATTACTCCGTTAGCAACTGTTTTTCTATATACATTTACCTTTTAAGAGGAGGAAT | 0.594 |
| CGACATGTCCCGCTTCTTTCATTACTCCGTTAGCAACTGTTTTTCTATTTACATTTACCTTTTAAGAGGAGGAAT | 0.151 |
| CGACATGTCCCGCTTCTTTCATTACTCCGTTAGCAACTTTTTTGCTATATACATTTACCTTTTAAGAGGAGGAAT | 2.09 |
| CGACATGTCCCGCTTCTTTCATTACTCCGTTAGCAAGTGTTTTGCTATATACATTTACCTTTTAAGAGGAGGAAT | 0.557 |
| CGACATGTCCCGCTTCTTTCATTACTCCGTTAGCAATTGTTTTGCTATATACATTTACCTTTTAAGAGGAGGAAT | 1.23 |
| CGACATGTCCCGCTTCTTTCATTACTCCGTTAGCAGCTGTTTTGCTATATACATTTACCTTTTAAGAGGAGGAAT | 0.827 |
| CGACATGTCCCGCTTCTTTCATTACTCCGTTAGCTACTGTTTTGCTATATACATTTACCTTTTAAGAGGAGGAAT | 0.923 |
| CGACATGTCCCGCTTCTTTCATTACTCCGTTAGTAACGGTTTTGCTATATACATTTACCTTTTAAGAGGAGGAAT | 0.281 |

| Sequence | cleaved RNA product abundance |
| --- | --- |
| CGACATGTCCCGCTTCTTTCATTACTCCGTTAGTAACTGTTTTGCTATATACATTTACCTTTTAAGAGGAGGAAT | 0.482 |
| CGACATGTCCCGCTTCTTTCATTACTCCGTTATCAACTGTTTTGCTATATACATTTACCTTTTAAGAGGAGGAAT | 0.227 |
| CGACATGTCCCGCTTCTTTCATTACTCCGTTATGAACTGTTTTCCTATATACATTTACCTTTTAAGAGGAGGAAT | 0.316 |
| CGACATGTCCCGCTTCTTTCATTACTCCGTTTACAACTGTTTTGCTATATACATTTACCTTTTAAGAGGAGGAAT | 0.368 |
| CGACATGTCCCGCTTCTTTCATTACTCCGTTTGCAACTGTTTTGCTATATACATTTACCTTTTAAGAGGAGGAAT | 0.667 |
| CGACATGTCCCGCTTCTTTCATTACTCCTTTAGCAACTGTTTTGCTATATACATTTACCTTTTAAGAGGAGGAAT | 0.376 |
| CGACATGTCCCGCTTCTTTCATTACTCTGTTAGCAACTGTTTTGCTATATACATTTACCTTTTAAGAGGAGGAAT | 0.791 |
| CGACATGTCCCGCTTCTTTCATTACTGCGTTAGCAACTGTTTTGCTATATACATTTACCTTTTAAGAGGAGGAAT | 1.68 |
| CGACATGTCCCGCTTCTTTCATTACTTCGTTAGCAACTGTTTTGCTATATACATTTACCTTTTAAGAGGAGGAAT | 1.57 |
| CGACATGTCCCGCTTCTTTCATTAGTCAGTTAGCAACTGTTTTGCTATATACATTTACCTTTTAAGAGGAGGAAT | 0.249 |
| CGACATGTCCCGCTTCTTTCATTAGTCCGTTACCAACTGTTTTGCTATATACATTTACCTTTTAAGAGGAGGAAT | 0.248 |
| CGACATGTCCCGCTTCTTTCATTAGTCCGTTAGCAACAGTTTTGCTATATACATTTACCTTTTAAGAGGAGGAAT | 0.968 |
| CGACATGTCCCGCTTCTTTCATTAGTCCGTTAGCAACTGTTTTACTATATACATTTACCTTTTAAGAGGAGGAAT | 0.548 |
| CGACATGTCCCGCTTCTTTCATTAGTCCGTTAGCAACTGTTTTCCTATATACATTTACCTTTTAAGAGGAGGAAT | 0.352 |
| CGACATGTCCCGCTTCTTTCATTAGTCCGTTAGCAACTGTTTTGATATATACATTTACCTTTTAAGAGGAGGAAT | 0.542 |
| CGACATGTCCCGCTTCTTTCATTAGTCCGTTAGCAACTGTTTTGCTATATACATTTACCTTTTAAGAGGAGGAAT | 0.767 |
| CGACATGTCCCGCTTCTTTCATTAGTCCGTTAGCAACTGTTTTGCTATATACTTTTACCTTTTAAGAGGAGGAAT | 0.341 |
| CGACATGTCCCGCTTCTTTCATTAGTCCGTTAGCAACTGTTTTGCTATATATATTTACCTTTTAAGAGGAGGAAT | 0.842 |
| CGACATGTCCCGCTTCTTTCATTAGTCCGTTAGTAACTGTTTTGCTATATACATTTACCTTTTAAGAGGAGGAAT | 0.335 |
| CGACATGTCCCGCTTCTTTCATTATACCGTTAGCAACTGTTTTGCTATATACATTTACCTTTTAAGAGGAGGAAT | 2.04 |
| CGACATGTCCCGCTTCTTTCATTATCCCGTTAGCAACTGTTTTGCTATATACATTTACCTTTTAAGAGGAGGAAT | 1.49 |
| CGACATGTCCCGCTTCTTTCATTATCCCGTTAGCAACTGTTTTGCTATATACTTTTACCTTTTAAGAGGAGGAAT | 0.41 |
